# Experimental data: US20250257133A1 (ADAGENE PTE, published 2025)
# Substitutions are numbered along the chain they refer to. Names may count otherwise.
# B1: TY24881 (antibody, human IgG4 S228P, kappa, V domains shown)
# VH: QVQLVQSGAEVKKPGSSVKVSCKASGFSLSTGGVGVTWIRQAPGQGLEWIGSIYHSGSTYYSPSLKSRVTITADKSTSTAYMELSSLRSEDTAVYYCARYDYGYYSFDVWGQGTLVTVSS
# VL: DIQLTQSPSSLSASVGDRVTITCRASQSVDFDAFSFLAWYQQKPGKAPKLLIYAASTLQSGVPSRFSGSGSGTDFTLTISSLQPEDFATYYCQQSYSASTFGQGTKVEIKR
# notes: hIgG4/S241P
# B2: TY24864 (antibody, human IgG4 S228P, kappa, V domains shown)
# VH: EVQLVESGGGLVQPGGSLRLSCAASGFSLSTSGVGVSWIRQAPGKGLEWIGAIYHSGSTYYSPSLKSRVTISRDNSKNTLYLQLNSLRAEDTAVYYCARYGYSYYAFDYWGQGTLVTVSS
# VL: DIQLTQSPSSLSASVGDRVTITCRASQTIGSFLNWYQQKPGKAPKLLIYDASSLESGVPSRFSGSGSGTDFTLTISSLQPEDFATYYCQQSYSYQTFGQGTKVEIKR
# notes: hIgG4/S241P
# B3: TY24854 (antibody, human IgG4 S228P, kappa, V domains shown)
# VH: EVQLVESGGGLVQPGGSLRLSCAASGYSITSGYHWGWIRQAPGKGLEWIGEIYHSGSTYYSPSLKSRVTISRDNSKNTLYLQLNSLRAEDTAVYYCARRRGDGYFDFWGQGTLVTVSS
# VL: DIQLTQSPSSLSASVGDRVTITCRASQSVDFLGISFLHWYQQKPGKAPKLLIYDASNRATGIPSRFSGSGSGTDFTLTISSLQPEDFATYYCQQSYRTPLTFGQGTKVEIKR
# notes: hIgG4/S241P
# B4: TY24855 (antibody, human IgG4 S228P, kappa, V domains shown)
# VH: EVQLVESGGGLVQPGGSLRLSCAASGYSITSGHHWSWIRQAPGKGLEWIGDIYHSGSTYYNPSLKSRVTISRDNSKNTLYLQLNSLRAEDTAVYYCARKDDYYAFDYWGQGTLVTVSS
# VL: B3 VL with S26P, L32H, I34K, T98S, L100I
# notes: hIgG4/S241P
# B5: TY24871 (antibody, human IgG4 S228P, kappa, V domains shown)
# VH: QVQLVQSGAEVKKPGSSVKVSCKASGFTFSSYAIHWVRQAPGQGLEWIGSIYHSGSTYYSPSLKSRVTITADKSTSTAYMELSSLRSEDTAVYYCARDVYGSYALDVWGQGTLVTVSS
# VL: B3 VL with L32D, N57S, R58L, A59E, T60S, I62V, T98S, L100I
# notes: hIgG4/S241P
# B6: TY27566 (bispecific antibody, human IgG1, kappa, N297A)
# light: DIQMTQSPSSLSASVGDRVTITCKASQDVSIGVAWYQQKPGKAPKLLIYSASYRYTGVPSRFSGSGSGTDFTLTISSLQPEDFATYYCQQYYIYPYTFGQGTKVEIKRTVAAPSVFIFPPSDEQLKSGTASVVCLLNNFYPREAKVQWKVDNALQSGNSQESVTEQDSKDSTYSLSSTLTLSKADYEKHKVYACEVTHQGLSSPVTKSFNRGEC
# heavy: EVQLVESGGGLVQPGGSLRLSCAASGFTFTDYTMDWVRQAPGKGLEWVADVNPNSGGSIYNQRFKGRFTLSVDRSKNTLYLQMNSLRAEDTAVYYCARNLGPSFYFDYWGQGTLVTVSSASTKGPSVFPLAPSSKSTSGGTAALGCLVKDYFPEPVTVSWNSGALTSGVHTFPAVLQSSGLYSLSSVVTVPSSSLGTQTYICNVNHKPSNTKVDKKVEPKSCDKTHTCPPCPAPELLGGPSVFLFPPKPKDTLMISRTPEVTCVVVDVSHEDPEVKFNWYVDGVEVHNAKTKPREEQYASTYRVVSVLTVLHQDWLNGKEYKCKVSNKALPAPIEKTISKAKGQPREPQVYTLPPSRKKLTKNQVKLTCLVKGFYPSDIAVEWESNGQPENNYKTTPPVLDCDGSFFLYSKLTVDKSRWQQGNVFSCSVMHEALHNHYTQKSLSLSPGK
# chain: DIQLTQSPSSLSASVGDRVTITCRASQSVDFHGISFLHWYQQKPGKAPKLLIYAASSLQSGVPSRFSGSGSGTDFTLTISSLQPEDFATYYCQQSYRSPRTFGQGTKVEIKGGGGSGGGGSGGGGSGGGGSEVQLVESGGGLVQPGGSLRLSCAASGFSLSTGGVGVSWIRQAPGKGLEWIGEIYHSGSTYYSPSLKSRVTISRDNSKNTLYLQLNSLRAEDTAVYYCARYEYYYYDFDYWGQGTLVTVSSEPKSSDKTHTCPPCPAPELLGGPSVFLFPPKPKDTLMISRTPEVTCVVVDVSHEDPEVKFNWYVDGVEVHNAKTKPREEQYASTYRVVSVLTVLHQDWLNGKEYKCKVSNKALPAPIEKTISKAKGQPREPQVYTDPPSRDELTKNQVSLTCLVDGFYPSDIAVEWESNGQPENCYKTTPPVLDSDGSFFLYSKLTVDKSRWQQGNVFSCSVMHEALHNHYTQDSLSLSPGK
# notes: also called anti-HER2xCD28 BsAb; TY27566 (WT)
# B7: TY29109 (bispecific antibody, human IgG1, kappa, N297A)
# light: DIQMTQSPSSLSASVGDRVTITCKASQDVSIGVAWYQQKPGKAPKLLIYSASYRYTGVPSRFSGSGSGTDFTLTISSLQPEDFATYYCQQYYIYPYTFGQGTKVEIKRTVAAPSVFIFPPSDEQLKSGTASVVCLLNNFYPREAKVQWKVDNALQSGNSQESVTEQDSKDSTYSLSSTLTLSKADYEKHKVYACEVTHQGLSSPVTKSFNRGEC
# heavy: B6 heavy
# chain: EVQLVESGGGLVQPGGSLRLSCAASGFSLSTGGVGVSWIRQAPGKGLEWIGEIYHSGSTYYSPSLKSRVTISRDNSKNTLYLQLNSLRAEDTAVYYCARYEYYYYDFDYWGQGTLVTVSSGGGGSGGGGSGGGGSGGGGSDIQLTQSPSSLSASVGDRVTITCRASQSVDFHGISFLHWYQQKPGKAPKLLIYAASSLQSGVPSRFSGSGSGTDFTLTISSLQPEDFATYYCQQSYRSPRTFGQGTKVEIKEPKSSDKTHTCPPCPAPELLGGPSVFLFPPKPKDTLMISRTPEVTCVVVDVSHEDPEVKFNWYVDGVEVHNAKTKPREEQYASTYRVVSVLTVLHQDWLNGKEYKCKVSNKALPAPIEKTISKAKGQPREPQVYTDPPSRDELTKNQVSLTCLVDGFYPSDIAVEWESNGQPENCYKTTPPVLDSDGSFFLYSKLTVDKSRWQQGNVFSCSVMHEALHNHYTQDSLSLSPGK
# notes: anti-HER2 Fab x CD28 scFv WT (VH-VL)-Fc; also called TY29109 (WT)
# B8: TY28656 (bispecific antibody, human IgG1, kappa, N297A)
# light: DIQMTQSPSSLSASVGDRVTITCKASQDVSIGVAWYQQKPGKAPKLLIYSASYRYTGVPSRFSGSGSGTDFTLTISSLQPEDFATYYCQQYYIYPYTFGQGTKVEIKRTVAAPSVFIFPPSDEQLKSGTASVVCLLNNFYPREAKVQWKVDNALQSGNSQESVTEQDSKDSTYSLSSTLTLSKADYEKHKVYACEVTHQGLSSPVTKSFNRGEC
# heavy: B6 heavy
# chain: B6 chain with H32Y, I34K, S98T, G163S, S168G, Y191N, S193N, Y234G, D237A, F238L
# notes: anti-HER2 Fab x CD28 scFv BC8235 (VL-VH)-Fc
# B9: TY29310 (bispecific antibody, human IgG1, kappa, N297A)
# light: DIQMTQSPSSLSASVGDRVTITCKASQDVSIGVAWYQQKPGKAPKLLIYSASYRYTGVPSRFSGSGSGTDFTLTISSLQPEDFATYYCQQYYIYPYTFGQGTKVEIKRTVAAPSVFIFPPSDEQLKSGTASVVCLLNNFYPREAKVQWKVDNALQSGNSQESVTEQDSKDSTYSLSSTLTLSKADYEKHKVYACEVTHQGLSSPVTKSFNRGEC
# heavy: B6 heavy
# chain: B7 chain with G32S, S37G, Y60N, S62N, Y103G, D106A, F107L, H172Y, I174K, S238T
# notes: anti-HER2 Fab x CD28 scFv BC8235 (VH-VL)-Fc
# B10: TY28658 (bispecific antibody, human IgG1, kappa, N297A)
# light: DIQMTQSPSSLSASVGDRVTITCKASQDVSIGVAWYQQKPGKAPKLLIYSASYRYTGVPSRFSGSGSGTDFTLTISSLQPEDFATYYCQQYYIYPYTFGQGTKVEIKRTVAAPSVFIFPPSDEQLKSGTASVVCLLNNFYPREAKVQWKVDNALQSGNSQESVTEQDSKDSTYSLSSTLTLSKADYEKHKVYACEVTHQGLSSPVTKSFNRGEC
# heavy: B6 heavy
# chain: B6 chain with H32Y, I34K, Q59E, R100L, G163S, S168G, E183S, S193N, Y234D
# notes: anti-HER2 Fab x CD28 scFv BC8240 (VL-VH)-Fc
# B11: TY28652 (bispecific antibody, human IgG1, kappa, N297A)
# light: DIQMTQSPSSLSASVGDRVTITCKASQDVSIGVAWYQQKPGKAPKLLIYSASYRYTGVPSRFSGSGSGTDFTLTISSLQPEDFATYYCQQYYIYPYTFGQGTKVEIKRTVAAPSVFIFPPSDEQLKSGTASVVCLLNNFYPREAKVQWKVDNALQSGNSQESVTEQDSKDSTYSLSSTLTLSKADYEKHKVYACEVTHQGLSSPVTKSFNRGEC
# heavy: B6 heavy
# chain: B6 chain with H32Y, I34K, Q59E, R100P, E183S, S193N, Y234D, D237A
# notes: anti-HER2 Fab x CD28 scFv BC8227 (VL-VH)-Fc
# B12: TY28660 (bispecific antibody, human IgG1, kappa, N297A)
# light: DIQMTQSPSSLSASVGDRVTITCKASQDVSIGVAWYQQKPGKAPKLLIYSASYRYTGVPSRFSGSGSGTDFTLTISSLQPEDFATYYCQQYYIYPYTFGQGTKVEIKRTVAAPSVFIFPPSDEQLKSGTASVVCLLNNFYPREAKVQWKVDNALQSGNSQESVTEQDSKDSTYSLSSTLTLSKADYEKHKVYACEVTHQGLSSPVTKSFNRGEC
# heavy: B6 heavy
# chain: B6 chain with I34K, G163S, Y235S, D237A
# notes: anti-HER2 Fab x CD28 scFv BC8257 (VL-VH)-Fc
# B13: TY29314 (bispecific antibody, human IgG1, kappa, N297A)
# light: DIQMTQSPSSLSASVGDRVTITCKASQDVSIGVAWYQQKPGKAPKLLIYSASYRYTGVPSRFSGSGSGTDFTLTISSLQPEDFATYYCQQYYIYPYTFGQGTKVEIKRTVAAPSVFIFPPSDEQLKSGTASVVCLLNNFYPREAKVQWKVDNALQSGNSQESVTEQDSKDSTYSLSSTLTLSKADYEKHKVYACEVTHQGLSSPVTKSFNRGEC
# heavy: B6 heavy
# chain: B7 chain with G32S, Y104S, D106A, I174K
# notes: anti-HER2 Fab x CD28 scFv BC8257 (VH-VL)-Fc
# Legend:
# [1] = target: T1, His-tagged human CTLA4 protein (human, UniProt P16410 36-161, limits assumed); assay: Octet BLI, mAb captured;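 further: Anti-human Fc biosensors captured the antibodies, then His-tagged protein analytes at 100 nM associated for 300 s and dissociated for 300 s, fitted by a 1:1 Langmuir model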
# T1 construct: not shown: His tag
# [2] = target: T2, His-tagged human CD28 protein (human, UniProt P10747 19-152); assay: Octet BLI, mAb captured;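 further: Anti-human Fc biosensors captured the antibodies, then His-tagged protein analytes at 100 nM associated for 300 s and dissociated for 300 s, fitted by a 1:1 Langmuir model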
# T2 construct: not shown: His tag
# Human CD28 on cells = target: T3, Human CD28 on cells (human, UniProt P10747 19-220); assay: flow cytometry, Jurkat cells
# T3 construct: Jurkat E6-1 cells, primary human T cells, or transfected HEK293F cells; also called CD28 on Jurkat cells; CD28 on human CD3+ T cells
# [3] = target: Human CD28 (ELISAs of Examples 4 and 13) (human, UniProt P10747 19-152, limits assumed); assay: ELISA
# T1 sequence (P16410 36-161 limits assumed): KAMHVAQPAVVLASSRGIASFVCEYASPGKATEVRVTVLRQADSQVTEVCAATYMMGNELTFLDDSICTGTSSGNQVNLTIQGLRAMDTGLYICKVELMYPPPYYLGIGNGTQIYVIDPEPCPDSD
Binder,Kd [1] [nM],koff [1] [s⁻¹],kon [1] [M⁻¹ s⁻¹],Kd [2] [nM],koff [2] [s⁻¹],kon [2] [M⁻¹ s⁻¹],EC50 (Human CD28 on cells) [nM],EC50 [3] [nM]
B1,2.35,0.00262,1.11e+06,5.25,0.000662,126000,0.38,
B2,5.5,0.00284,517000,4.41,0.000416,94200,0.54,
B3,,,,5.43,0.000353,64900,0.6,
B4,4.02,0.00305,760000,7.93,0.000628,79200,0.61,
B5,,,,4.99,0.00035,70100,0.89,
B6,,,,,,,,3.89
B7,,,,,,,,30.3
B8,,,,,,,,128
B9,,,,,,,,349
B10,,,,,,,,78
B11,,,,,,,,3.68
B12,,,,,,,,3.77
B13,,,,,,,,27.5
